Experimental data published in the supplement of paper PMC9170038.

Key:
Conditions in all cases: FMN input: 0 or 200 uM; Eterna round: R93 (includes R88 designs)
[1] = system: MS2 coat protein; assay: apparent KD of MS2 coat protein, switch ON state; designed switch direction (-1 OFF switch, 1 ON switch): 1; higher = weaker reporter binding
Summary of the method: (§1)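 Titrations with SNAP-549-labelled MS2 coat protein ran in twofold steps from 0.7 or 1.5 nM to 3 µM, each step taking 0.8–1.5 h at the start and 10–20 min toward the end. The targets were designed RNA switches transcribed on-chip from Illumina sequencing clusters, held in 100 mM Tris-HCl pH 7.5, 80 mM KCl, 4 mM MgCl2, without or with constant ligand. Apparent KD was taken per design as the median of normalised cluster binding-curve fits.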

[2] = system: MS2 coat protein; assay: apparent KD of MS2 coat protein, switch OFF state (with FMN for OFF switches, without FMN for ON switches); designed switch direction (-1 OFF switch, 1 ON switch): 1; higher = weaker reporter binding
Summary of the method: as §1

[3] = system: MS2 coat protein; assay: apparent KD of MS2 coat protein, switch ON state; designed switch direction (-1 OFF switch, 1 ON switch): -1; higher = weaker reporter binding
Summary of the method: as §1

[4] = system: MS2 coat protein; assay: apparent KD of MS2 coat protein, switch OFF state (with FMN for OFF switches, without FMN for ON switches); designed switch direction (-1 OFF switch, 1 ON switch): -1; higher = weaker reporter binding
Summary of the method: as §1

Sequence | apparent KD of MS2 coat protein [1] [nM] | apparent KD of MS2 coat protein [2] [nM] | apparent KD of MS2 coat protein [3] [nM] | apparent KD of MS2 coat protein [4] [nM]
AAAAAAAAAAGUCAGGAUAUGCAGGGCGGGACAUGAGGAUCACCCAUGUGGCGGAAAAAAAAAAAGCAGAAGGGACGAAUAAAAAA [William Edwards Deming] | 23.1 | 42.8 | – | –
AAAAAAAGAUCACAGGAUAUACGAAAAAAAACAUGAGGAUCACCCAUGUAAAAAAAAAAAAAAAAGUAGAAGGGUGAUCCAAAAAA | 28.5 | 11 | – | –
AAAAAACAUGAGGAUCACCCAUGUAAAAAAAUCACAGGAUAUAAGGUCGCGAAAGCGACCUUAGAAGGGUGAUCAA | 58.8 | 421 | – | –
AAAAAACAUGAGGAUCACCCAUGUAAAAAAAUGGGAGGAUAUACAAAAACAAAAAAAAAAGUAGAAGGCCUGAAAA [same state 9] | 41.3 | 419 | – | –
AAAAAACAUGAGGAUCACCCAUGUCCUCGGACGUGAGGAUAUGUACAGACUUCGGUCUGUACAGAAGGCAUGUAAA [SS1 - 1051] | 555 | 379 | – | –
AAAAAACAUGAGGAUCACCCAUGUCGAAAGACGUGAGGAUAUGUACAGACUUCGGUCUGUACAGAAGGCAUGAAAA [SS1 - 1057] | 79.5 | 176 | – | –
AAAAAACAUGAGGAUCACCCAUGUCUUUUGACAUGAGGAUAUGUACAGACUUCGGUCUGUACAGAAGGCAUAAAAA [SS1 - 1030] | 109 | 480 | – | –
AAAAAACAUGAGGAUCACCCAUGUGAGAACAUGGGAGGAUAUACGAGGACGAGAGUCAAGGUAGAAGGCCUAAGAA [Garnet 68] | 268 | 22.8 | – | –
AAAAAACAUGAGGAUCACCCAUGUGCAAAAUUCGCAGGAUAUUCCUCAAUUAAAUGAGAGGAAGAAGGGUGACAAA [Nob's Hobby 29 - Jieux - Same State 1] | 112 | 500 | – | –
AAAAAAGAUCGCGAGGAUAUCCGAGUGGUAACAUGAGGAUCACCCAUGUGAAGAAAGGAACAUGAGGAGAAGGCGCGAUCAAAAA [viburnum 5] | 10.9 | 18.7 | – | –
AAAACACAUGAGGAUCACCCAUGUAAAAACAUGAGAGGAUAUGCUUGGAAAACAUGCUAUGCAGAAGGCUCAAGUG [SS1 - 9] | 18.2 | 30.1 | – | –
AAAACACAUGAGGAUCACCCAUGUAGAAAUAUGGGAGGAUAUACGAAAACGAAAGUCAAAGUAGAAGGCCUAAAAG [saturn 3] | 30.9 | 79 | – | –
AAAACCUGCGUCGAGGAUAUGUAGCCCACUACAUGAGGAUCACCCAUGUGGAUCUUACUGGGUCGACAGAAGGUGAAAGUAAGGC [Ustionon] | 49.3 | 39.4 | – | –
AAAAGACAUGAGGAUCACCCAUGUAAAGACAUAGGAGGAUAUGUCUGGAAAAAAGACUGGACAGAAGGCCUUUGUC [SS1 - 62] | 20 | 20.4 | – | –
AAAAGACAUGAGGAUCACCCAUGUAGGCCAAAGCAAGGAUAUAGGCCACAGGGACGCGGACUAGAAGGUGCACGGC [Orerorge] | 25.2 | 60.2 | – | –
AAAAGACAUGAGGAUCACCCAUGUAGGCCAAAGCAAGGAUAUAGGCCACAGGGACGUGAACUAGAAGGUGCACGGC [Zainlebe] | 30.8 | 135 | – | –
AAAAGACAUGAGGAUCACCCAUGUCGAAAGACAUGAGGAUAUGUACAGACUUCGGUCUGUACAGAAGGCAUAAAAA [SS1 - 1061] | 27 | 89.5 | – | –
AAAAGACAUGAGGAUCACCCAUGUGAAAACGUAGGAGGAUAUGUAUGGAAACCAGACUGUACAGAAGGCCUUUGUC [SS1 - 75] | 23 | 23.3 | – | –
AAAAUACAUGAGGAUCACCCAUGUGAAAAUAUGGGAGGAUAUACGAAAAAUAAAUAAAACGUAGAAGGCCUAAAAA [SS! 1 MT 2] | 22.2 | 165 | – | –
AAAAUAUAAACAGAGGAUAUCCAAAGAACCACAUGAGGAUCACCCAUGUAAAGAAAGAAUAAGUGGGAGAAGGUUGAAAUAAUAA [Designing denovo 26] | 49.9 | 74.9 | – | –
AAACAAACAACGCAGGAUAUGCAAAAACCCACAUGAGGAUCACCCAUGUCCCAACAACAAACAAAGCAGAAGGGCGAACAAACAAA [High Roller1] | 37.3 | 86.8 | – | –
AAACAGAUAGGACAGGAUAUGUCGUGAUAAACAUGAGGAUCACCCAUGUGAGACAUCACGUAAUCGCAGAAGGGUCCUGUCUUAC [Aquditiri] | 16.3 | 15.6 | – | –

Sequence | apparent KD of MS2 coat protein [1] [nM] | apparent KD of MS2 coat protein [2] [nM] | apparent KD of MS2 coat protein [3] [nM] | apparent KD of MS2 coat protein [4] [nM]
AAACCACAUGAGGAUCACCCAUGUGAAAAAAACAUAGGAUAUGGAAACACGAAAGUGAAACCAGAAGGGUGAAAAA [77%, Mat - Mod of Eli, 27] | 24.3 | 23.8 | – | –
AAACCACAUGAGGAUCACCCAUGUGAAAUACAUACAGGAUAUGCGAAAAGAAACAAAGAAGCAGAAGGGUGAAAAA [75%, Ex sub1, 18] | 15.9 | 25.4 | – | –
AAAGACAUAGUUCAGGAUAUGGUAAUAGUCACAUGAGGAUCACCCAUGUGCAUUUAUAUGCGCGAUCAGAAGGGAGGUAGAUAUA [SameState2 Malc#18] | 18.8 | 17.7 | – | –
AAAUAAAGGACUGAGGAUAUACCACAUGAAACAUGAGGAUCACCCAUGUAGAAAUACAAAGGGUGGUAGAAGGCAGUCCACAAAC [Same State 2.5g ( so lets mod hyphema)] | 15 | 25.5 | – | –
AAAUAAAGGACUGAGGAUAUACCACAUGAAACAUGAGGAUCACCCAUGUAGAAAUACAAAGGGUGGUAGAAGGUAGUCCACAAAC [Same State 2.5 so lets mod hyphema)] | 45.9 | 68.9 | – | –
AAAUAAAUGACUAAGGAUAUAUCAAAGAAAACAUGAGGAUCACCCAUGUAAUAAUAAAAAGGGUGAUAGAAGGUAGUCAACAAAC [74%, More Paria 4] | 23.7 | 221 | – | –
AAAUAAAUGACUAAGGAUAUUUCAGAGAAAACAUGAGGAUCACCCAUGUAAUAAUAAAAAGGGUGAAAGAAGGUAGUCAACAAAC [74%, More Paria 4] | 17.1 | 41 | – | –
AAAUAAAUGACUGAGGAUAUAUCGAUGAAAACAUGAGGAUCACCCAUGUGAUAAUAAAAAGGGUGGUAGAAGGUAGUCAACAAAC [Mod 12 of Pariah 4 by Hyphema in Round 1] | 55.5 | 207 | – | –
AACAAUCUAUCUGAGGAUAUCAUGUCAAAGACAUGAGGAUCACCCAUGUCCAGGAAAACUGGUCAUGAGAAGGCAGAUAGAUUGA [SS2: 1111] | 51.3 | 887 | – | –
AACAAUCUAUCUGAGGAUAUGUGUCGAAAGACAUGAGGAUCACCCAUGUAAAAACAUGAAAAAACACAGAAGGCAGAUAGAUUGA [SS2: 1146] | 62.6 | 81.5 | – | –
AACAAUCUAUCUGAGGAUAUGUGUCGAAAGACAUGAGGAUCACCCAUGUGAAAACAUGAAAAAACACAGAAGGCAGAUAGAUUGA [SS2: 1147] | 33.6 | 70.6 | – | –
AAGAAACAUGAGGAUCACCCAUGUAAAAAUAUGGGAGGAUAUGCGAAAAGAAACAAAGAAGCAGAAGGCCUAAGAA [75%, Ex5 sub 1, 6] | 15.9 | 51.1 | – | –
AAGAAACAUGAGGAUCACCCAUGUAAAUAAAACACAGGAUAUCGAAUAUGGGAGAUUUAACGAGAAGGGUGAAGAA [Meechl MS2 SS1 3] | 36 | 87.7 | – | –
AAGAAACAUGAGGAUCACCCAUGUAAGAUAAACACAGGAUAUGCGAAAAGAAAUAAAGAAGCAGAAGGGUGAAGAA [Mat - Same State 1 - Tesla mod - 63] | 21.7 | 54.3 | – | –
AAGAAACAUGAGGAUCACCCAUGUAAGAUAAACACAGGAUAUGCGAAAGAAACAAAGAAAGCAGAAGGGUGAAGAA [Mat - Same State 1 - Tesla mod - 48] | 9.76 | 26.8 | – | –
UCCACACAUGAGGAUCACCCAUGUGAGGAUAUCUAGAAAACCUCAUGUAAAAAAAUCUAGAGAAGGCAUAUGAA [Design 91: Pseudoknot A] | – | – | 24.1 | 18.6
UCCAGACAUGAGGAUCACCCAUGUCAGGAUAUCUAGAAAACCUCAUGUAAAAAAAACUAGAGAAGGGAUAUGAA [Design 96: Pseudoknot F] | – | – | 19.6 | 15.7
UCCUGACAUGAGGAUCACCCAUGUCAGGAUAUGCAUCUUAGGAAAAAAAAACUAAGAUGCAGAAGGGACAUGGG [Design 1: Super Stable] | – | – | 26.9 | 36.3
UGGGAGUCAGGAUAUACGAACAUGUCGCCAGAUGUCAAGGUACAUGAGGAUCACCCAUGUAGAAGGGAGGAGAA [salish99-Ex2-30(!)] | – | – | 97.1 | 56.6
UUUACGUGAGGAUAUGCGAAUAGUACGUAAGUCUUACAGACGCAGAAGGCACAUGAGGAUCACCCAUGUGAACC [JR_Exc004_Sub310] | – | – | 22.7 | 55.9
UUUUGACAUGAGGAUCACCCAUGUCAGGAUAUAGUAAGAAAAAAAAAAAAAAAAACUACUAGAAGGGAUAUGGA [Amethyst 51] | – | – | 24.5 | 25.4
